{
  "source": "the supplement of paper PMC12764529",
  "key": {"[1]": {"assay": "folding stability dG unfold from trypsin proteolysis; higher = more stable", "method_in_brief": "(§1)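 Digests were run with trypsin and chymotrypsin at 11 concentrations in threefold dilutions, plus a no-protease condition, on designed mini-proteins in a PA-tagged cDNA display construct. The mini-proteins were under 80 residues, had no cysteine, and were kept only when AlphaFold2 dimer inter-PAE was above 15. After sequencing, Bayesian fitting of the counts gave K50, from which unfolding free energy was derived against a sequence-predicted unfolded-state K50 and a shared folded-state K50, per protease or combined.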"}, "[2]": {"assay": "folding stability dG unfold (combined trypsin and chymotrypsin); higher = more stable", "method_in_brief": "as §1"}, "[3]": {"assay": "folding stability dG unfold from chymotrypsin proteolysis; higher = more stable", "method_in_brief": "as §1"}},
  "note": "± gives the half width of the 95% confidence interval.",
  "data": [
    {"sequence": "SAGGSAGGSAGSVTLPKNQVGVSVESYEVTLPDETGESVTRYKITLRFAETGLSAEFYAGSAGGSAGGSAGG [r17_266_TrMRF]", "values": [
      {"measurement": "folding stability dG unfold", "setting": "[1]", "value": "1.2 ± 0.047", "unit": "kcal/mol"},
      {"measurement": "folding stability dG unfold", "setting": "[2]", "value": "1.26 ± 0.22", "unit": "kcal/mol"},
      {"measurement": "folding stability dG unfold", "setting": "[3]", "value": "1.34 ± 0.25", "unit": "kcal/mol"}
    ]},
    {"sequence": "SAGGSAGGSAGSWELSYRFPGVQIEVTYSPEWGFITEIKVQPLPPPPPPSPEDAKEMKEKSAGGSAGGSAGG [r11_320_TrROS]", "values": [
      {"measurement": "folding stability dG unfold", "setting": "[1]", "value": "0.799 ± 0.083", "unit": "kcal/mol"},
      {"measurement": "folding stability dG unfold", "setting": "[2]", "value": "2.02 ± 0.12", "unit": "kcal/mol"},
      {"measurement": "folding stability dG unfold", "setting": "[3]", "value": "2.56 ± 0.081", "unit": "kcal/mol"}
    ]},
    {"sequence": "SAGGSAGGSAGSYPIEYIPAPPDRLWLIDPKNGKIYEIYLDPERGEYSFEEIKEFPLGLESAGGSAGGSAGG [r11_352_JUSTAS]", "values": [
      {"measurement": "folding stability dG unfold", "setting": "[1]", "value": "1.34 ± 0.045", "unit": "kcal/mol"},
      {"measurement": "folding stability dG unfold", "setting": "[2]", "value": "1.57 ± 0.1", "unit": "kcal/mol"},
      {"measurement": "folding stability dG unfold", "setting": "[3]", "value": "1.66 ± 0.073", "unit": "kcal/mol"}
    ]},
    {"sequence": "SAGGSAGGSAGTEIKIPPEFPDLPVKVYPIEVTLLGKGKPKKVILNVATTPDAIIAVDPESAGGSAGGSAGG [r11_21_TrMRF]", "values": [
      {"measurement": "folding stability dG unfold", "setting": "[1]", "value": "-0.478 ± 0.1", "unit": "kcal/mol"},
      {"measurement": "folding stability dG unfold", "setting": "[2]", "value": "-0.623 ± 0.2", "unit": "kcal/mol"},
      {"measurement": "folding stability dG unfold", "setting": "[3]", "value": "-0.61 ± 0.28", "unit": "kcal/mol"}
    ]},
    {"sequence": "SAGGSAGGSAGTIVITQSPDGTWRAYYEDGTAEEFDSIDDLKKALEEHYPDAKTVIFKPASAGGSAGGSAGG [r11_806_TrMRF]", "values": [
      {"measurement": "folding stability dG unfold", "setting": "[1]", "value": "3.33 ± 0.15", "unit": "kcal/mol"},
      {"measurement": "folding stability dG unfold", "setting": "[2]", "value": "3.15 ± 0.17", "unit": "kcal/mol"},
      {"measurement": "folding stability dG unfold", "setting": "[3]", "value": "2.99 ± 0.17", "unit": "kcal/mol"}
    ]},
    {"sequence": "SAGGSAGGSAGTLTLRVQLFDEDGRLVAEREVELEVELPPPPPVELEFDEETRELRRRRLSAGGSAGGSAGG [r17_348_TrROS_Hall]", "values": [
      {"measurement": "folding stability dG unfold", "setting": "[1]", "value": "1.12 ± 0.18", "unit": "kcal/mol"},
      {"measurement": "folding stability dG unfold", "setting": "[2]", "value": "0.965 ± 0.24", "unit": "kcal/mol"},
      {"measurement": "folding stability dG unfold", "setting": "[3]", "value": "0.811 ± 0.22", "unit": "kcal/mol"}
    ]},
    {"sequence": "SAGGSAGGSAGVIPLPGGEEVEYFPEKGEATVRLPDGTVYKVEITKAPDGSLSVTVTPAGSAGGSAGGSAGG [r11_331_JUSTAS]", "values": [
      {"measurement": "folding stability dG unfold", "setting": "[1]", "value": "1.79 ± 0.052", "unit": "kcal/mol"},
      {"measurement": "folding stability dG unfold", "setting": "[2]", "value": "1.45 ± 0.052", "unit": "kcal/mol"},
      {"measurement": "folding stability dG unfold", "setting": "[3]", "value": "1.1 ± 0.035", "unit": "kcal/mol"}
    ]},
    {"sequence": "SAGGSAGGSAGVIRVKLKDGPVREIPLEDVPPELLNTPELLAAIEALAREAGYEIESIEASAGGSAGGSAGG [r11_467_TrMRF]", "values": [
      {"measurement": "folding stability dG unfold", "setting": "[1]", "value": "1.7 ± 0.038", "unit": "kcal/mol"},
      {"measurement": "folding stability dG unfold", "setting": "[2]", "value": "2.03 ± 0.056", "unit": "kcal/mol"},
      {"measurement": "folding stability dG unfold", "setting": "[3]", "value": "2.22 ± 0.029", "unit": "kcal/mol"}
    ]},
    {"sequence": "SAGGSAGGSAGVITVTKDPKTGKYTVTIETPSGPATTVEVSSEEEAKELAKKLGYDIDALSAGGSAGGSAGG [r11_1049_JUSTAS]", "values": [
      {"measurement": "folding stability dG unfold", "setting": "[1]", "value": "3.89 ± 0.14", "unit": "kcal/mol"},
      {"measurement": "folding stability dG unfold", "setting": "[2]", "value": "3.82 ± 0.098", "unit": "kcal/mol"},
      {"measurement": "folding stability dG unfold", "setting": "[3]", "value": "3.78 ± 0.087", "unit": "kcal/mol"}
    ]},
    {"sequence": "SAGGSAGGSAGVIVTPEGDRIVTYDPNTGSVTVTPLDAAGNPLTTTVVAPNGPVVTVTELSAGGSAGGSAGG [r17_385_JUSTAS]", "values": [
      {"measurement": "folding stability dG unfold", "setting": "[1]", "value": "1.66 ± 0.055", "unit": "kcal/mol"},
      {"measurement": "folding stability dG unfold", "setting": "[2]", "value": "1.22 ± 0.034", "unit": "kcal/mol"},
      {"measurement": "folding stability dG unfold", "setting": "[3]", "value": "0.871 ± 0.018", "unit": "kcal/mol"}
    ]},
    {"sequence": "SAGGSAGGSAGVPDNAKIRLAFEFDGYIVLIEATPGTGFIKNIDKVEVFPVIPNTGEVTGSAGGSAGGSAGG [r11_66_TrMRF]", "values": [
      {"measurement": "folding stability dG unfold", "setting": "[1]", "value": "1.53 ± 0.07", "unit": "kcal/mol"},
      {"measurement": "folding stability dG unfold", "setting": "[2]", "value": "1.79 ± 0.13", "unit": "kcal/mol"},
      {"measurement": "folding stability dG unfold", "setting": "[3]", "value": "1.85 ± 0.1", "unit": "kcal/mol"}
    ]},
    {"sequence": "SAGGSAGGSAGVPEGEEYLFTVKVTLTFEPVTVKDENGEEHEIDEVTITVTVTVLVKAEDSAGGSAGGSAGG [r11_907_TrROS_Hall]", "values": [
      {"measurement": "folding stability dG unfold", "setting": "[1]", "value": "2.33 ± 0.35", "unit": "kcal/mol"},
      {"measurement": "folding stability dG unfold", "setting": "[2]", "value": "2.93 ± 0.24", "unit": "kcal/mol"},
      {"measurement": "folding stability dG unfold", "setting": "[3]", "value": "3.24 ± 0.12", "unit": "kcal/mol"}
    ]},
    {"sequence": "SAGGSAGGSAGVPSLEEVLAELEANPNSDAVVELPDGTRVRIRVERLPGGELRVEREEVLSAGGSAGGSAGG [r11_300_JUSTAS]", "values": [
      {"measurement": "folding stability dG unfold", "setting": "[1]", "value": "1.21 ± 0.029", "unit": "kcal/mol"},
      {"measurement": "folding stability dG unfold", "setting": "[2]", "value": "1.6 ± 0.078", "unit": "kcal/mol"},
      {"measurement": "folding stability dG unfold", "setting": "[3]", "value": "1.78 ± 0.049", "unit": "kcal/mol"}
    ]},
    {"sequence": "SAGGSAGGSAGVRIDKDGWTIKWYNPDGEKRTFTVDSPEEAKDFLEENFPPGWRVEIEPPSAGGSAGGSAGG [r11_983_TrROS]", "values": [
      {"measurement": "folding stability dG unfold", "setting": "[1]", "value": "1.11 ± 0.046", "unit": "kcal/mol"},
      {"measurement": "folding stability dG unfold", "setting": "[2]", "value": "1.33 ± 0.13", "unit": "kcal/mol"},
      {"measurement": "folding stability dG unfold", "setting": "[3]", "value": "1.38 ± 0.056", "unit": "kcal/mol"}
    ]},
    {"sequence": "SAGGSAGGSAGVTIPDPGEEELRKALEAGREVRVAFPESGKVVLVEGPGPELGEEPEPAASAGGSAGGSAGG [r11_94_JUSTAS]", "values": [
      {"measurement": "folding stability dG unfold", "setting": "[1]", "value": "-0.619 ± 0.093", "unit": "kcal/mol"},
      {"measurement": "folding stability dG unfold", "setting": "[2]", "value": "0.275 ± 0.075", "unit": "kcal/mol"},
      {"measurement": "folding stability dG unfold", "setting": "[3]", "value": "0.589 ± 0.012", "unit": "kcal/mol"}
    ]},
    {"sequence": "SAGGSAGGSAGWGLIITIEVEGEYDPANGQWSLNIEIEIQPIRIPPPKEPPPDDNPNNDDSAGGSAGGSAGG [r17_454_TrROS]", "values": [
      {"measurement": "folding stability dG unfold", "setting": "[1]", "value": "2.27 ± 0.23", "unit": "kcal/mol"},
      {"measurement": "folding stability dG unfold", "setting": "[2]", "value": "3.86 ± 0.32", "unit": "kcal/mol"},
      {"measurement": "folding stability dG unfold", "setting": "[3]", "value": "4.08 ± 0.15", "unit": "kcal/mol"}
    ]},
    {"sequence": "SAGGSAGGSAGWYFPIDELQKEHPNMSPETIADFFQKDGYKIEVEPVGPEPWVKIEPPEKSAGGSAGGSAGG [r11_707_TrROS]", "values": [
      {"measurement": "folding stability dG unfold", "setting": "[1]", "value": "0.658 ± 0.07", "unit": "kcal/mol"},
      {"measurement": "folding stability dG unfold", "setting": "[2]", "value": "0.242 ± 0.12", "unit": "kcal/mol"},
      {"measurement": "folding stability dG unfold", "setting": "[3]", "value": "-0.513 ± 0.67", "unit": "kcal/mol"}
    ]},
    {"sequence": "SAGGSAGGSAGYESVVNELKRKGYKVEVKKTPDGTYVVTVTKKDGTVETITLGPEGGKISSAGGSAGGSAGG [r17_503_JUSTAS]", "values": [
      {"measurement": "folding stability dG unfold", "setting": "[1]", "value": "2.67 ± 0.14", "unit": "kcal/mol"},
      {"measurement": "folding stability dG unfold", "setting": "[2]", "value": "4.16 ± 0.15", "unit": "kcal/mol"},
      {"measurement": "folding stability dG unfold", "setting": "[3]", "value": "4.36 ± 0.12", "unit": "kcal/mol"}
    ]}
  ]
}
